# Results as given in patent US20240174750A1 (VIRTUOSO BINCO, published 2024).
# Substitutions are numbered along the chain they refer to.
# T1: extracellular domain (ECD) of cyno CD47 (4aa-126aa) with C-terminal 6xHis tag (cynomolgus monkey, UniProt Q08722 19-140 (human entry), limits assumed)
# T1 construct: also called cynomolgus monkey CD47
# T1 chain: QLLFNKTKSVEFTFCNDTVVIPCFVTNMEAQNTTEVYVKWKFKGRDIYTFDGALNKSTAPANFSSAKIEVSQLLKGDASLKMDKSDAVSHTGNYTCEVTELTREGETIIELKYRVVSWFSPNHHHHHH
# B1: hu.18B9.3i HC_D95A (antibody, name in Kabat numbering, V domains shown)
# VH: EVQLVESGGGLVQPGGSLRLSCAASGFSFNSGYMSWVRQAPGKGLEWIASIYAGSSGKTYYADWAKGRFTISKTSSKTTVYLQMNSLRAEDTAVYYCARASGGTYYTDYLYLWGQGTLVTVSS
# VL: DIQMTQSPSSLSASVGDRVTITCRASEGISSYLSWYQQKPGKAPKLLIYKASTLTSGVPSRFSGSGSGTDFTLTISSLQPEDFATYYCQSTYGSSGSSGYGAAFGGGTKVEIK
# notes: Alanine scan variant of hu.18B9.3i; Kabat numbering
# B2: hu.18B9.3i HC_D100c_A (antibody, V domains shown)
# VH: B1 VH with A100D, D108A
# VL: B1 VL
# notes: as for B1
# B3: hu.18B9.3i HC_Y101A (antibody, name in Kabat numbering, V domains shown)
# VH: B1 VH with A100D, Y111A
# VL: B1 VL
# notes: as for B1
# B4: hu.18B9.3i HC_Y100d_A (antibody, V domains shown)
# VH: B1 VH with A100D, Y109A
# VL: B1 VL
# notes: as for B1
# B5: hu.18B9.3i HC_G98A (antibody, name in Kabat numbering, V domains shown)
# VH: B1 VH with A100D, G103A
# VL: B1 VL
# notes: as for B1
# B6: hu.18B9.3i HC_G97A (antibody, name in Kabat numbering, V domains shown)
# VH: B1 VH with A100D, G102A
# VL: B1 VL
# notes: as for B1
# B7: R.19H7 (antibody, human IgG1, kappa, V domains shown)
# VH: QEQLKESGGGLVTPGGTLTLTCTASGFTISSYHMCWVRQAPGKGLEWIGCIYPNNDFTWYATWAKGRFTISKTSSTTVDLRMTTPTTEETATYFCARASGNAYNLLDLWGQGTLVTVSS
# VL: AIVMTQTPASVSVAVGGSVTINCQSSESVYRDNCLGWFQQKPGQPPKLLIYRASTLASGVPSRFKGSGSGTQFTLTISDVVSDDAATYYCAGYKSTITDGTAFGGGTEVVVKR
# notes: Chimeric: rabbit variable domains, human IgG1 and human kappa constant regions
# B8: R.14G4 (antibody, human IgG1, kappa, V domains shown)
# VH: B7 VH with S30T, D56G, T62S, R81K, T84S, T90M, A98G, A102S, L105Q
# VL: B7 VL with V13A, A14T, V15L, R52K
# notes: as for B7
# B9: R.20H1 (antibody, human IgG1, kappa, V domains shown)
# VH: QEQLVESGGGLVKPGASLTLTCKASGFSFSSGYYMCWVRQAPGKGLEWIGCIYVRSDSTYYASWAKGRFTISKASSTTVTLQMTSLTAADTATYFCARGVTGDSYRFNFWGPGTLVTVSS
# VL: DVVMTQTPASVEAAVGGTVTIKCQASQSISNELSWYQQKSGQPPKLLIYRASTLESGVPSRFKGSGSGTEFTLTISDLESADAATYYCQSTYYGTSYGNAFGGGTEVVVKR
# notes: as for B7
# B10: M.69H1H9 (antibody, human IgG1, kappa, V domains shown)
# VH: EVQLQQSGPELVKPGASVKMSCKTSGYTFTEYTIHWVKQSHEKSLEWIGSINPNNGLFRYNQKFKGKATLTVDKSSSTAYMELRSLTSEDSAVYYCARDYGFGYSDYWGQGTTLTVSS
# VL: DIQMIQSPSSMFASLGDRVSLSCRASQGIRGNLDWYQQKPGGTIKLLIYSTSNLNSGVPSRFSGSGSGSDYSLTISSLESEDFADYYCLQRNAFPWTFGGGTKLEIKR
# notes: Chimeric: mouse variable domains, human IgG1 and human kappa constant regions
# B11: R.1H3 (antibody, human IgG1, kappa, V domains shown)
# VH: QSLEESGGDLVKPGASLTLTCTASGFSFSSGYYMCWVRQAPGKGLEWIACIYMRSGDTYLASWAKGQFTISKTSSTTVTLQMTSLTAADTATYFCGRGGTSYALNLWGQGTLVTVSS
# VL: DVVMTQTPASVSEPVGGTVTINCQASQSISNECSWYQQKPGQPPKLLIYRASTLESGVPSRFSGSGSGTEFTLTISDLESADAATYYCQSTYYGTTGNTFGGGTEVVVKR
# notes: as for B7
# B12: R.9B11 (antibody, human IgG1, kappa, V domains shown)
# VH: QEQLEESGGDLVKPEGSLTLTCTASGFSFSSYWMAWVRQAPGKGLEWIACIYIGSGSGTTYYASWAKGRFTISKTSSTTVTLQMTSLTAADTAIYFCARWAGSDGHFTLWGPGTLVTVSL
# VL: ALVMTQTPASVEAAVGGTVTINCQASQSINNLLAWYQQKPGQRPKLLIYDASDLASGVSSRFKGSGSGTEYTLTISGVQSADAATYYCQGYFYGSSVDLVFGGGTEVVVKR
# notes: as for B7
# B13: M.20B10E9 (antibody, human IgG1, kappa, V domains shown)
# VH: EVQLQQSGAELVRPGASVKLSCTASGFNIEDTYMHWVKQRPEQGLEWIGRIDPANGKTKSDPKFQGKATITTDTSSNTAYLQLSSLTSEDTAVYYCAKGDGYYVGGLDYWGQGTTLTVSS
# VL: DIQMNQSPSSLSASLGDTITITCHASQNIHVWLSWYQQKPGNIPKLLIYKASNLHTGVPSRFSGSGSGTGFTLTISSLQPEDIATYYCQQGQSYPYTFGGGTKLEIKR
# notes: as for B10
# B14: M.30A5C6 (antibody, human IgG1, kappa, V domains shown)
# VH: B13 VH with R13K, K57N, S60Y, I70V, T72A, Y95C, K98R, Y102H, D108N, T115S
# VL: B13 VL with H30N, S93N
# notes: as for B10
# B15: R.13A2 (antibody, human IgG1, kappa, V domains shown)
# VH: QSLEESGGDLVKPGASLTVTCTASGFSFSSYYYVCWVRQAPGKGLEWIACIYAGSSGDTYYASWAKGRFTISKTSSTTVTLQMTSLTAADTATYFCARGYTGYSYQFNFWGPGTLVTVSS
# VL: DVVMTQTPASVEAAVGGTVTIKCQASQSISNELSWYQQKPGQPPKLLIYRASTLESGVPSRFKGSGSGTEFTLTISDLESADAATYYCQCTYITYGNAFGGGTEVVVKR
# notes: as for B7
# B16: M.95D4A11 (antibody, human IgG1, kappa, V domains shown)
# VH: QVQLQQPGAELVRPGASVKLSCKASGYTFTSYWMNWVKQRPEQGLEWIGSIDPYDSETHYNQKFKDKAILTVDKSSSTAYMQLSSLTSEDSAVYYCARGRGYAMDYWGQGTSVTVSS
# VL: DIQMTQSPASLSASVGETVTITCRASGNIHNYLAWYQQKQGKSPQLLVYNAKTLADGVPSRFSGSGSGTQYSLKINSLQPEDFGSYYCQHFWSTPPTFGGGTKLEIKR
# notes: as for B10
# B17: R.1B11 (antibody, human IgG1, kappa, V domains shown)
# VH: QSLEESGGRLVTPGTPLTLTCTASGFSLNSYHMSWVRQAPGEGLEWIGIIYADTGNADYASWTKGRFTISKASTTVELRITSPTSEDTATYFCARGPTNTYPTYFALWGPGTLVTVSS
# VL: AFELTQTPSSVEAAVGGTVTIKCQASQSITTYLAWYQQKPGQPPKLLIYGASNLESGVPSRFKGSRSGTEYTLTISDLESADAATYYCQSYYAISKSAFGGGTEVVVKR
# notes: as for B7
# B18: R.15G10 (antibody, human IgG1, kappa, V domains shown)
# VH: QSLEESGGRLVTPGTPLTLTCTASGFTISSYHMNWVRQAPGEGLEWIGIIYVGSGNADYASWAKGRFTISKASTTVDLKITSPTTEDTATYFCARGPTNTYPTYFNLWGPGTLVTVSS
# VL: AFELTQTPSSVEAAVGGTVTIKCQASRSITSYLAWYQHKPGQPPTLLIYAASNVASGVSSRFKGSRSGTEYTLTISDLESADAATYYCQSYYAISTNTFGGGTEVVVKR
# notes: as for B7
# B19: hu.1D15E11-V1 (antibody, human IgG1, kappa, V domains shown)
# VH: EVQLVQSGAEVKKPGASVKVSCKASGYTFTSYVMHWVRQAPGQRLEWMGYIDPYNEGTKYNEKFKGRVTITRDTSASTAYMELSSLRSEDTAVYYCSRGGMARRSFDYWGQGTLVTVSS
# VL: DIQMTQSPSSLSASVGDRVTITCLASQTIGTWLTWYQQKPGKAPKLLIYAATTLAEGVPSRFSGSGSGTDFTLTISSLQPEDFATYYCQQLYSTPWTFGGGTKVEIKR
# notes: Humanised variant of 1D15E11; also called hu.1D15E11-Vi; hu.1D15E11 variants
# B20: hu.1D15E11-V4 (antibody, human IgG1, kappa, V domains shown)
# VH: B19 VH with M101V
# VL: B19 VL
# notes: Humanised variant of 1D15E11; also called hu.1D15E11 variants
# B21: hu.1D15E11-V2 (antibody, human IgG1, kappa, V domains shown)
# VH: B19 VH with R72S
# VL: B19 VL
# notes: as for B20
# B22: hu.1D15E11-V3 (antibody, human IgG1, kappa, V domains shown)
# VH: B19 VH with M101I
# VL: B19 VL
# notes: as for B20
# Molecular target: T2, extracellular domain (ECD) of human CD47 (19aa-139aa) with C-terminal 6xHis tag (human, UniProt Q08722 19-139)
# T2 construct: also called recombinant CD47; recombinant human CD47
# Assay: ELISA on recombinant human CD47; legend: NB: not bound
row,binding result,Binder
1,no binding,B1
2,no binding,B2
3,no binding,B3
4,no binding,B4
5,no binding,B5
6,no binding,B6

# Molecular target: T2, extracellular domain (ECD) of human …
# Assay: ELISA, coated recombinant CD47; EC50 as grade, legend the 6th table, row 26
# Protocol: A 96-well plate was coated overnight at 4° C. with 1 μg/ml recombinant CD47. After washing 3 times, the plate was blocked with 300 μL 1% BSA in PBST at 37° C. for 1 hour. Serially diluted antibodies were added and incubated at 37° C. for 1 hour. The plate was then washed 4 times with PBST and incubated with 1:5000 diluted 2nd antibody (Sigma, Cat #A0293) at 37° C. for 1 hour.
row,EC50,Binder
1,0.1 to 0.5 nM,B7
2,> 0.5 nM,B8
3,0.1 to 0.5 nM,B9
4,0.01 to 0.1 nM,B10
5,> 0.5 nM,B11
6,0.01 to 0.1 nM,B12
7,0.01 to 0.1 nM,B13
8,0.01 to 0.1 nM,B14
9,> 0.5 nM,B15
10,0.01 to 0.1 nM,B16
11,0.01 to 0.1 nM,B17
12,0.01 to 0.1 nM,B18

# Molecular target: T3, CD47 on the surface of CD47+ cells (human, UniProt Q08722 19-323)
# T3 construct: whole, on cells; also called CD47+ cell lines; CD47 on Raji cells, HCT-15 cells, human red blood cells (RBCs), human platelets
# Assay: flow cytometry, competition with SIRPA-mIgG2a on CD47+ tumor cells; IC50 as grade, legend the 8th table, row 26
# Protocol: Tumor cells were harvested, centrifuged, and then resuspended in FACS buffer (PBS plus 2% FBS) at a concentration of 2×10⁶ cells/mL. 100 μL of the cell suspension was dispensed into each well of a 96-well plate. The plate was centrifuged for 5 min and 300×g, and the supernatants were discarded. […] After washing twice with FACS buffer, the plates were resuspended with 300 μL FACS buffer and analyzed by flow cytometry.
row,IC50,Binder
1,1 to 5 nM,B7
2,1 to 5 nM,B8
3,0.1 to 1 nM,B9
4,0.1 to 1 nM,B10
5,0.1 to 1 nM,B11
6,1 to 5 nM,B12
7,0.1 to 1 nM,B13
8,0.1 to 1 nM,B14
9,0.1 to 1 nM,B15
10,0.1 to 1 nM,B16
11,0.1 to 1 nM,B17
12,0.1 to 1 nM,B18

# Molecular target: T3, CD47 on the surface of CD47+ cells
# Assay: flow cytometry on CD47+ cell lines; EC50 as grade, legend the 7th table, row 26
# Protocol: Antibody binding to CD47+ cell lines was quantified by flow cytometry. Harvested cells were centrifuged at 2000 rpm for 5 min, resuspended in 10-15 mL ice-cold culture medium, and then counted. Cells were resuspended in blocking buffer (PBS plus 2% FBS) at a concentration of 3×10⁶ cells/mL. 100 μL of the cell suspension was dispensed into each well of a 96-well plate. Purified antibodies were diluted to the desired concentrations with blocking buffer and 100 μL of diluted antibodies were added to the well and incubated for 1 hour at 4° C. The cells were then washed 3 times with PBS plus 2% FBS. […] The cells were then washed 3 times with 200 μL PBS by centrifuging at 2000 rpm for 5 min. After the last wash, the cells were resuspended in 300 μL cold PBS and analyzed on a FACSVerse™ (BD Biosciences) flow cytometer.
row,EC50,Binder
1,0.1 to 0.5 nM,B7
2,> 5 nM,B8
3,0.1 to 0.5 nM,B9
4,0.1 to 0.5 nM,B10
5,0.1 to 0.5 nM,B11
6,0.5 to 5 nM,B12
7,0.1 to 0.5 nM,B13
8,0.1 to 0.5 nM,B14
9,0.5 to 5 nM,B15
10,0.1 to 0.5 nM,B16
11,0.1 to 0.5 nM,B17
12,0.5 to 5 nM,B18

# Molecular target: T2, extracellular domain (ECD) of human …
# Assay: ELISA, coated recombinant CD47, FIG. 4A-4B
# Protocol: (§1) A 96-well plate was coated overnight at 4° C. with 1 μg/mL recombinant CD47. After washing 3 times, the plate was blocked with 300 μL 100 BSA in PBST at 37° C. for 1 hour. Serially diluted antibodies were added and incubated at 37° C. for 1 hour. The plate was then washed 4 times with PBST and incubated with 1:5000 diluted peroxidase labeled goat anti-human IgG (Fab specific) secondary antibody (Sigma, Cat #A0293) for 1 hour at 37° C. The plate was washed again 4 times with PBST, incubated with 3,3′,5,5′-tetramethylbenzidine (TMB) substrate for 15 min at room temperature, terminated with 1N HCl, and then read at 450 nm.
row,binding result,Binder
1,binds,B19
2,binds,B20
3,binds,B21
4,binds,B22

# Molecular target: T1, extracellular domain (ECD) of cyno CD47 …
# Assay: ELISA, coated recombinant CD47, FIG. 4A-4B
# Protocol: as §1
row,binding result,Binder
1,binds,B19
2,binds,B20
3,binds,B21
4,binds,B22
